Results published in US20110165660A1, “ENGINEERED MICROORGANISMS WITH ENHANCED FERMENTATION ACTIVITY” (VERDEZYNE, INC., priority 2009, published 2011).

Assays:
[1] = test system: xylose isomerase activity; experiment: Heterologous xylose isomerase expression in engineered yeast (active yes/no); conditions: xylose isomerase of the donor organism expressed in engineered yeast (S. cerevisiae)
xylose = experiment: In vitro xylose isomerase activity assay on soluble whole cell extract (sorbitol dehydrogenase/NADH coupled, A340; Km, specific activity); assay type: biochemical, Saccharomyces cerevisiae
Protocol: […] Louis, Mo.), and about 2 U sorbitol dehydrogenase (Roche) at about 30° C. […] A Beckman DU-800 was utilized with an Enzyme Mechanism software package (Beckman Coulter, Inc.), and the change in the A340 was monitored for 2-3 minutes.
(§1) Approximately 20 μg of soluble whole cell extract from each transformed cell line, prepared using Y-PER plus reagent as described above, was incubated in a solution containing about 100 mM Tris, pH 7.5, 10 mM MgCl ? 2, 0.15 mM NADH (Sigma, St. Louis, Mo.), and 2 U Sorbitol Dehydrogenase (SDH) (Roche, Indianapolis, Ind.) at about 30° C. […] A Beckman DU-800 spectrophotometer was utilized with an Enzyme Mechanism software package (Beckman Coulter, Inc, Brea, Calif.), and the change in the A340 was monitored for 2-3 minutes.
as §1, with “line was” for “line,”, “above” for “above,”, “MgCl2,” for “MgCl ? 2,”, “sorbitol dehydrogenase” for “Sorbitol Dehydrogenase”
as §1, with “line was” for “line,”, “above” for “above,”

[2] = Western blot (anti-6xHis) of EDD and EDA expression in yeast, soluble/insoluble extract; parameters: species or system Saccharomyces cerevisiae; conditions: C-terminal HIS tag, S. cerevisiae BY4742; total crude and solubilized extract; FIGS. 13A and 13B
Protocol: Transformation of the p426GPD plasmids containing an edd or an eda variant gene into yeast strain BY4742 was accomplished using the Zymo Research frozen-EZ yeast transformation II kit according to the manufacturer's protocol. The transformed BY4742 cells were selected by growth on a synthetic dextrose medium (SD) (0.67% yeast nitrogen base-2% dextrose) containing complete amino acids minus uracil (Krackeler Scientific Inc). Plates were incubated at about 30° C. for about 48 hours. Transformant colonies for each edd and eda variant were inoculated onto 5 ml of SD minus uracil medium and cells were grown at about 30° C. and shaken at about 250 rpm for about 24 hours. Cells were harvested by centrifugation at 1000×g for about 5 minutes, after which protein crude extract was prepared with Y-PER Plus (Thermo Scientific) according to the manufacturer's instructions. Whole cell extract protein concentrations were determined using the Coomassie Plus Protein Assay (Thermo Scientific) according to the manufacturer's directions. For each edd and eda variant His-tagged construct, about 10 μg of soluble and insoluble fractions were loaded on 4-12% NuPAGE Novex Bis-Tris protein gels (Invitrogen) and proteins were analyzed by western using anti-(H is)6 (SEQ ID NO: 138) mouse monoclonal antibody (Abcam) and HRP-conjugated secondary antibody (Abcam). […]

6-phosphogluconate = experiment: EDA activity assay: S. cerevisiae EDA extracts with saturating E. coli EDD extract, LDH/NADH coupled; assay type: biochemical, Saccharomyces cerevisiae
Protocol: EDA extracts were prepared using the following protocol.
Grow 5 ml LB-Kan preps of BF1055 (BL21/DE3 with pET26b empty vector) and BF1706 (BL21DE3 with pET26b+E. coli EDD).
Grow 50 ml LB-Kan prep of BF1055, 2% (v/v) inoculate.
Grow 50 ml prep of BF1706 using Novagen's Overnight Express (46.45 ml LB-Kan, 1 ml solution 1, 2.5 ml solution 2, 50 μl solution 3, 5 μl of 1M MnCl2, 50 μl of 0.5 M FeCl2), 2% (v/v) inoculate.
Inoculate to OD600 of 0.2.
EDD extractions (adapted from Chemyan et al, Protein Science 16:2368-2377, 2007): • 1) Pellet cells in 50 ml conical tubes, 4° C., 3,000 rpm, 10 mins, discard supernatant. • 2) Resuspend in 2 ml degassed PDGH buffer (20 mM MES pH 6.5, 30 mM NaCl, 5 mM MnCl2, 0.5 mM FeCl2, 10 mM 2-mercaptoethanol, 10 mM cysteine, sparged with nitrogen gas). Move to hungate tube. • 3) Add 0.1% Triton X-100, 10 ng/ml DNase, 10 μg/ml PMSF, 10 μg/ml TAME (Nα-(p-toluene sulfonyl)-L-arginine methyl ester), 100 μg/ml lysozyme. • 4) Sparge hungate tube with nitrogen gas, cap and seal. […]
Each reaction contains 50 mM Tris-HCl, pH 7, 10 mM MgCl2, 0.15 mM NADH, 15 μg LDH, saturating amounts of EDD determined empirically (usually ˜100 μg), 1-50 μg EDA (depending on level of activity), and 1 mM 6-phosphogluconate. Reactions are started by the addition of 6-phosphogluconate and monitored for 5 mins at 30° C.

For “Piromyces: xylose isomerase from Piromyces strain E2 (SEQ ID NO: 35)”, the “Active? (yes/no)” value [1] was “Yes” and the “Specific Activity” value (xylose; soluble whole cell extract, pH 7.5, 30° C.) was 2.02 µmol/min/mg.

B1: PAO1 EDD: phosphogluconate dehydratase (edd) from P. aeruginosa PAO1 (SEQ ID NO: 70) (protein, listed as Pseudomonas aeruginosa)
chain: MHPRVLEVTRRIQARSAATRQRYLEMVRAAASKGPHRGTLPCGNLAHGVAACGESDKQTLRLMNQANVAIVSAYNDMLSAHQPFERFPGLIKQALHEIGSVGQFAGGVPAMCDGVTQGEPGMELSLASRDVIAMSTAIALSHNMFDAALCLGVCDKIVPGLLIGSLRFGHLPTVFVPAGPMPTGISNKEKAAVRQLFAEGKATREELLASEMASYHAPGTCTFYGTANTNQLLVEVMGLHLPGASFVNPNTPLRDELTREAARQASRLTPENGNYVPMAEIVDEKAIVNSVVALLATGGSTNHTLHLLAIAQAAGIQLTWQDMSELSHVVPTLARIYPNGQADINHFQAAGGMSFLIRQLLDGGLLHEDVQTVAGPGLRRYTREPFLEDGRLVWREGPERSLDEAILRPLDKPFSAEGGLRLMEGNLGRGVMKVSAVAPEHQVVEAPVRIFHDQASLAAAFKAGELERDLVAVVRFQGPRANGMPELHKLTPFLGVLQDRGFKVALVTDGRMSGASGKVPAAIHVSPEAIAGGPLARLRDGDRVRVDGVNGELRVLVDDAEWQARSLEPAPQDGNLGCGRELFAFMRNAMSSAEEGACSFTESLNGWR
In the case of B1, the “expression and solubility (western)” value [2] is reported as “expressed and soluble”.

B2: R. flavefaciens, FD-1 XI: xylose isomerase from R. flavefaciens FD-1 (SEQ ID NO: 110) expressed in S. cerevisiae (protein, listed as Ruminococcus flavefaciens)
chain: MEFFKNISKIPYEGKDSTNPLAFKYYNPDEVIDGKKMRDIMKFALSWWHTMGGDGTDMFGCGTADKTWGENDPAARAKAKVDAAFEIMQKLSIDYFCFHDRDLSPEYGSLKDTNAQLDIVTDYIKAKQAETGLKCLWGTAKCFDHPRFMHGAGTSPSADVFAFSAAQIKKALESTVKLGGTGYVFWGGREGYETLLNTNMGLELDNMARLMKMAVEYGRSIGFKGDFYIEPKPKEPTKHQYDFDTATVLGFLRKYGLDKDFKMNIEANHATLAQHTFQHELCVARTNGAFGSIDANQGDPLLGWDTDQFPTNIYDTTMCMYEVIKAGGFTNGGLNFDAKARRGSFTPEDIFYSYIAGMDAFALGYKAASKLIADGRIDSFISDRYASWSEGIGLDIISGKADMAALEKYALEKGEVTDSISSGRQELLESIVNNVIFNL
With B2 the “activity (slope) at saturating xylose” value (xylose; 100 μg total soluble crude extract, 500 mM xylose, FIG. 25) was “highest activity of the candidates tested” and the “specific activity relative to native XI control” value (xylose; xylose concentrations between 40 and 500 nM) was “greater than 2 fold”.

B3: E. coli EDA: 2-keto-3-deoxygluconate-6-phosphate aldolase (eda) from E. coli expressed in yeast (protein, UniProt P0A955 1-213, looked up)
KHG/KDPG aldolase: MKNWKTSAESILTTGPVVPVIVVKKLEHAVPMAKALVAGGVRVLEVTLRTECAVDAIRAIAKEVPEAIVGAGTVLNPQQLAEVTEAGAQFAISPGLTEPLLKAATEGTIPLIPGISTVSELMLGMDYGLKEFKFFPAEANGGVKALQAIAGPFSQVRFCPTGGISPANYRDYLALKSVLCIGGSWLVPADALEAGDYDRITKLAREAVEGAKL
In the case of B3, the “expression and solubility (western)” value [2] is reported as “expressed and soluble”, the “EDA activity relative to the EDA from P. aeruginosa” value (6-phosphogluconate; EDA expressed in S. cerevisiae, saturating E. coli EDD) is reported as “approximately 16 fold” and the EDA activity ranking (6-phosphogluconate; repeat: 100 μg EDD and 25 μg EDA cell lysates (5 μg E. coli EDA), FIG. 24) is reported as “most active”.
